From patent US20090281024A1 (RAPTOR PHARMACEUTICALS, published 2009)
Where a chain is given by its changes, count along the chain named. Names may count otherwise.

T1: RAP d3 (wild-type third domain of the receptor-associated protein) (human, UniProt P30533 235-353)
T1 construct: range 201-319 (mature RAP numbering); Expressed in E. coli from pET30(+)a; also called wild-type RAP d3; not shown: N-terminal hexahistidine and S-peptide tags of pET30(+)a
T1 sequence (looked up): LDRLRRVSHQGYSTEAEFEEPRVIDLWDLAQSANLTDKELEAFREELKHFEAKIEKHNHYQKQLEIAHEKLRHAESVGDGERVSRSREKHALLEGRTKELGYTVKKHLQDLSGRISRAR

B1: LRP2 CR89 Y1042W V1047D (receptor)
chain: PTEQCGLFSFPCKNGRCVPNYWLCDGDDDCHDNSDEQLCGTLNNTCSSSAFTCGHGECIPAHWRCDKRNDCVDGSDEHNCPTHA
notes: also called WDWR; not shown: N-terminal hexahistidine and S-peptide tag stretch of pET30(+)a
B2: LRP2 CR89 Y1042W R1088D (receptor)
chain: B1 chain with D27V, R68D
notes: also called WVWD; not shown: N-terminal hexahistidine and S-peptide tag stretch of pET30(+)a
B3: RAP d3 E251K, K256A, K270E (ligand, human, UniProt P30533 235-353, looked up)
chain: T1 sequence (looked up) with E51K, K56A, K70E
notes: range 201-319 (mature RAP numbering); Forward mutant of m1; same construct; also called RAP E251K, K256A, K270E; not shown: N-terminal hexahistidine and S-peptide tags of pET30(+)a
B4: RAP d3 H249Y (ligand, human, UniProt P30533 235-353, looked up)
chain: T1 sequence (looked up) with H49Y
notes: range 201-319 (mature RAP numbering); Forward mutant of m1; same construct; also called RAP H249Y; not shown: N-terminal hexahistidine and S-peptide tags of pET30(+)a
B5: RAP d3 E217K (ligand, human, UniProt P30533 235-353, looked up)
chain: T1 sequence (looked up) with E17K
notes: range 201-319 (mature RAP numbering); Forward mutant of m1; same construct; also called RAP E217K; not shown: N-terminal hexahistidine and S-peptide tags of pET30(+)a
B6: RAP d3 E251K (ligand, human, UniProt P30533 235-353, looked up)
chain: T1 sequence (looked up) with E51K
notes: range 201-319 (mature RAP numbering); Forward mutant of m1; same construct; also called RAP E251K; not shown: N-terminal hexahistidine and S-peptide tags of pET30(+)a
B7: RAP d3 E251K, K270E (ligand, human, UniProt P30533 235-353, looked up)
chain: T1 sequence (looked up) with E51K, K70E
notes: range 201-319 (mature RAP numbering); Forward mutant of m1; same construct; also called RAP E251K, K270E; not shown: N-terminal hexahistidine and S-peptide tags of pET30(+)a
B8: RAP d3 K270E (ligand, human, UniProt P30533 235-353, looked up)
chain: T1 sequence (looked up) with K70E
notes: range 201-319 (mature RAP numbering); Forward mutant of m1; same construct; also called RAP K270E; not shown: N-terminal hexahistidine and S-peptide tags of pET30(+)a
B9: MegaRAP1 d3 (designed binder)
chain: T1 sequence (looked up) with S13T, E17K, H49Y, E51K, K56A, K70E
notes: range 201-319 (mature RAP numbering); d3 of the variant selected on LRP2 CR89; also called RAPv2A d3; RAP v2A; not shown: N-terminal hexahistidine and S-peptide tags of pET30(+)a
B10: RAP d3 K256A, K270E (ligand, human, UniProt P30533 235-353, looked up)
chain: T1 sequence (looked up) with K56A, K70E
notes: range 201-319 (mature RAP numbering); Forward mutant of m1; same construct; also called RAP K256A, K270E; not shown: N-terminal hexahistidine and S-peptide tags of pET30(+)a
B11: MegaRAP1 d3 T213S revertant (designed binder)
chain: T1 sequence (looked up) with E17K, H49Y, E51K, K56A, K70E
B12: MegaRAP1 d3 K217E revertant (designed binder)
chain: T1 sequence (looked up) with S13T, H49Y, E51K, K56A, K70E
B13: MegaRAP1 d3 K251E, E270K double revertant (designed binder)
chain: T1 sequence (looked up) with S13T, E17K, H49Y, K56A
B14: MegaRAP1 d3 E270K revertant (designed binder)
chain: T1 sequence (looked up) with S13T, E17K, H49Y, E51K, K56A
B15: MegaRAP1 d3 A256K, E270K double revertant (designed binder)
chain: T1 sequence (looked up) with S13T, E17K, H49Y, E51K
B16: LRP2 CR3536 (receptor)
chain: not shown
notes: domain: CR3536; the primers (LRP2CR35F, LRP2CR36R) fit CR3536; not shown: N-terminal hexahistidine and S-peptide tags of pET30(+)a
B17: LRP2 CR3031 (receptor)
chain: not shown
notes: domain: CR3031; not shown: N-terminal hexahistidine and S-peptide tags of pET30(+)a
B18: LRP2 CR2728 (receptor, human, UniProt P98164 3552-3631, looked up)
chain: FCRLGQFQCSDGNCTSPQTLCNAHQNCPDGSDEDRLLCENHHCDSNEWQCANKRCIPESWQCDTFNDCEDNSDEDSSHCA
notes: domain: CR2728; not shown: N-terminal hexahistidine and S-peptide tags of pET30(+)a
B19: LRP2 CR89 R1088D (receptor)
chain: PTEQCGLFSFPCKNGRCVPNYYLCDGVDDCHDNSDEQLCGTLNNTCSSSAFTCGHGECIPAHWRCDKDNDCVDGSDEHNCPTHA
notes: also called YVWD; not shown: N-terminal hexahistidine and S-peptide tag stretch of pET30(+)a

target: B9; experiment: solid-phase binding assay: LRP2 CR89 variant coated on the plate, d3 ligand in solution, anti-RAP detection, absorbance
Procedure: (§1) RAP ligands were then incubated with the immobilized receptor at a range of concentrations for 2 hours in the above blocking buffer supplemented with 0.05% Tween-20 at room temperature. Control wells contained no added ligand. As an additional control, to determine whether the absence of calcium affected binding, 10 mM EGTA was included in the incubation medium for some samples. Wells were washed with TBSTC and bound ligands detected with polyclonal anti-RAP (BP41/42, 1:1,000, BioMarin). Excess primary antibody was removed and wells washed before incubation with the secondary antibody, HRP-conjugated goat anti rabbit IgG (Bio-Rad). After washing, TMB substrate solutions (Bio-Rad) were added to detect HRP. Color development was stopped with 1N HCl. Absorption at 450 nm was measured with a microplate spectrophotometer (Molecular Devices). Data were plotted and Kd values derived by non-linear regression with the assumption of single-site binding (GraphPad Prism).
One premise of this work was that amino acids at A, C, A′ and C′ within the calcium-binding loops of a CR pair were key determinants of binding affinity for RAP and would be similarly important for binding of RAP variants. […] Binding to both RAP d3 and MegaRAP1 d3 were measured for each LRP2 CR89 mutant by solid-phase assay. […]

binding result	Binder
no binding (tested: 100 nM)	B1
no binding (tested: 100 nM)	B2

target: T2, LRP1 CR3-5 (human); experiment: solid-phase assay, coated CR protein
T2 construct: range 852-973; also called L1 CR3-5; LRP1 CR3-S [sic]
T2 sequence (Q07954 852-973): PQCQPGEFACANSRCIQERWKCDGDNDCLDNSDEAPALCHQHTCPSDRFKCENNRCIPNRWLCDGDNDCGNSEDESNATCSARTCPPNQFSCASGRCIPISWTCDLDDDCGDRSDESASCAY
Procedure: (§2) Wells were washed with TBSTC and bound ligands detected with polyclonal anti-RAP (BP41/42, 1:1,000, BioMarin). Excess primary antibody was removed and wells washed before incubation with the secondary antibody, HRP-conjugated goat anti rabbit IgG (Bio-Rad). After washing, TMB substrate solutions (Bio-Rad) were added to detect HRP. Color development was stopped with 1N HCl. Absorption at 450 nm was measured with a microplate spectrophotometer (Molecular Devices). Data were plotted and Kd values derived by non-linear regression with the assumption of single-site binding (GraphPad Prism).
Next, the binding of RAP d3 and MegaRAP1 d3 proteins to LRP1 CR3-5 and LRP2 CR89 was assessed. […] In all cases, 10 mM EGTA prevented binding of both RAP d3 and MegaRAP1 d3 to CR proteins. Since calcium was the only divalent metal ion present in the binding buffer, this observation is consistent with both RAP d3 and MegaRAP1 d3 binding to calcium-loaded CR pairs. […] Therefore, wild-type RAP d3 and MegaRAP1 d3 have inverted binding preferences for these two receptor fragments.

% max binding	Binder
2%	B3
90%	B4
91%	B5
100%	B6
4%	B7
4%	B8
4%	B9
2%	B10
2%	B11
2%	B12
16%	B13
85%	B14
93%	B15

target: B9; experiment: solid-phase binding assay: CR protein coated on the plate, d3 ligand at 80 nM, anti-RAP detection, blank-corrected absorbance
Procedure: (§3) RAP d3, MegaRAP1 d3, VRAP2 d3, MatRAP1d3 and MatRAP2 d3 were each incubated at 80 nM concentrations with LRP1 CR3-5, LRP6 CR12, LRP6 CR23, LRP6 CR1-3, LRP2 CR89, LRP2 CR2728, LRP2 CR3031, LRP2 CR3435, LRP2 CR34-36, VLDLR CR78, VLDLR CR6-8, MAT CR12, MAT CR23 and MAT CR34. Samples were tested twice, in duplicate, and values combined. Means and standard deviations were then calculated. Blank values obtained from wells incubated in the absence of ligand were used to correct absorbance data.
as §1, with “Solid phase binding assays—Purified, refolded CR protein (1 μg) was bound to Nunc Maxisorp™ 96-well plates in TBS pH 8 supplemented with 5 mM CaCl₂ (TBSC) overnight at 4° C. Wells were washed with TBSC and then blocked with TBSC containing 2% bovine serum albumin (BSA). RAP ligands” for “RAP ligands”
(§4) The apparent dissociation constant for binding of VRAP1d3 to VLDLR CR78 was determined to be […]. We then compared binding of RAP d3, MegaRAP1 d3, VRAP1d3, MatRAP1d3 and MatRAP2 d3, each at a concentration of 80 nM, to fourteen CR pairs or triplets, including LRP1 CR3-5, LRP2 CR89, LRP2 CR2728, LRP2 CR3031, LRP2 CR34-36, LRP2 CR3536, VLDLR CR78, VLDLR CR6-8, LRP6 CR1-3, LRP6 CR12, LRP6 CR23, MAT CR12, MAT CR23 and MAT CR34 (FIG. 7).

binding result	Binder
no binding (tested: 80 nM)	B16
no binding (tested: 80 nM)	B17
no binding (tested: 80 nM)	B18

target: T1, RAP d3 (wild-type third domain of the …); experiment: as above
Procedure: as §3
as §1, with “Solid phase binding assays—Purified, refolded CR protein (1 μg) was bound to Nunc Maxisorp™ 96-well plates in TBS pH 8 supplemented with 5 mM CaCl₂ (TBSC) overnight at 4° C. Wells were washed with TBSC and then blocked with TBSC containing 2% bovine serum albumin (BSA). RAP ligands” for “RAP ligands”
as §4

binding result	Binder
no binding (tested: 80 nM)	B17
no binding (tested: 80 nM)	B18

target: B9; experiment: solid-phase assay, coated CR protein
Procedure: as §2
One premise of this work was that amino acids at A, C, A′ and C′ within the calcium-binding loops of a CR pair were key determinants of binding affinity for RAP and would be similarly important for binding of RAP variants. To test this idea, mutant LRP2 CR89 were prepared in which the native, non-canonical residues at these positions were sequentially substituted with the non-native, canonical residues. As defined above, the A, C, A′, C′ string for LRP2 CR89 is YVWR. Mutants included LRP2 CR89Y1042W (WVWR), LRP2 CR89V1047D (YDWR), LRP2 CR89R1088D (YVWD), LRP2 CR89V1047D R1088D (YDWD), LRP2 CR89 Y1042W V1047D R1088D (WDWD), LRP2 CR89Y1042W V1047D (WDWR), LRP2 CR89Y1042W R1088D (WVWD). Binding to both RAP d3 and MegaRAP1 d3 were measured for each LRP2 CR89 mutant by solid-phase assay. […] The A′ position in LRP2 CR89 is a tryptophan, the canonical residue for wild-type RAP d3 binding, and was not mutated in our studies. […] We did see a small increase in binding of RAP d3 to the WVWD and WDWD combinations at A, C, A′ and C′.

Kd	Binder
78 nM	B19
